Assay [1] addresses acrylodan-labeled D1 (Q26C mutant). Nature of the assay: other fluorescence titration; fixed acrylodan-labeled DARPin (100 nM D1 or 15 nM high affinity DARPins) titrated with tubulin; 20 mM K-phosphate pH 7.2, 100 mM KCl, 1 mM MgCl2, 0.5 mM EGTA, 10 μM GDP, 20 °C; 1:1 quadratic fit.
Assay [2] addresses acrylodan-labeled A-C2 (Q26C mutant). The description is as above.
Assay [3] concerns the target acrylodan-labeled TM-3 variant (Q26C mutant). The description is as above.
For assay [4], the target named is subtilisin-digested acrylodan-labeled TM-3 (C-cap-truncated TM-3). The description is as above.
Assay [5] addresses TM-3 1-149. Nature of the assay: SPR; Proteon XPR36; DARPins immobilised through their N-terminal His-tag on Ni2+-activated tris-NTA (HTG) sensor chip, tubulin injected at five concentrations; 20 °C; buffer of the fluorescence experiments with 20 μM EGTA and 0.005% Tween 20; Langmuir fit; for D1 also KD from the plateau values. (SPR reads the build-up and loss of mass on a sensor chip optically.)

The target in assay [6] is DARPin D1. Described as above.
The target of assay [7] is acrylodan-labeled D1 (Q26C mutant). Nature of the assay: fluorescence kinetics (stopped-flow and spectrofluorometer); koff: chase of acrylodan-labeled DARPin from tubulin by excess unlabeled DARPin (stopped-flow for D1, spectrofluorometer for high affinity DARPins), mono-exponential fit; kon: at least 5-fold excess of tubulin added to 50 nM labeled DARPin in a stopped-flow system, pseudo-first-order, slope of kobs against tubulin concentration.

The target of assay [8] is acrylodan-labeled A-C2 (Q26C mutant). The assay is described as above.
Assay [9] has as its target acrylodan-labeled TM-3 variant (Q26C mutant). Described as above.
The target of assay [10] is subtilisin-digested acrylodan-labeled TM-3 (C-cap-truncated TM-3). Described as above.

Our source for the Kd, koff and kon values is paper PMC4933879.

Values joined by “and” are separate entries in the source; they are usually repeats but may differ in a detail not shown here. Equal values may be shown once.

Sequence of DARPin D1 (main, as listed by the source): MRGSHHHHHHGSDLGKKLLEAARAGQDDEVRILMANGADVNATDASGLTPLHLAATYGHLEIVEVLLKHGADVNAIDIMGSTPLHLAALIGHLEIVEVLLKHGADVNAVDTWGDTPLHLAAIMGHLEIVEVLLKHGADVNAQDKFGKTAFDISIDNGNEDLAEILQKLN
Sequence of TM-3 1-149 (main, as listed by the source): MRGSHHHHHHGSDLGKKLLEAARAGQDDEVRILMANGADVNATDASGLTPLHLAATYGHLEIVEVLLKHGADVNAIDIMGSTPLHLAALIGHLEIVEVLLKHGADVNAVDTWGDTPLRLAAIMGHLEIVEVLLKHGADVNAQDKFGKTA

Broadly, the Kd is the equilibrium constant for the complex coming apart. Broadly, the koff is the first-order rate constant of dissociation. Read a high koff as fast dissociation. Usually kon stands for the rate constant with which the complex forms. The low end stands for slower complex formation, the high end for faster complex formation. For “αβ tubulin heterodimer (tubulin) (complex)”, the Kd in assay [1] was 127 nM; in assay [2] it was 0.82 nM; in assay [3], 0.9 nM; in [4], 1.03 nM; in assay [5], 1.6 nM; in assay [6], 300 nM and 275 nM. In addition, the Kd in assay [7] was found to be 115 nM; in assay [8], 0.444 nM; in assay [9], 0.269 nM; in assay [10], 0.172 nM. For the same substance, the koff worked out at 0.0027 s⁻¹ in [5]; 0.22 s⁻¹ in [6]; 1.49 s⁻¹ in assay [7]; 0.0071 s⁻¹ in assay [8]; 0.0049 s⁻¹ in assay [9]; 0.0046 s⁻¹ in assay [10]. In addition, the kon is 1.7e+06 M⁻¹ s⁻¹ in assay [5]; 800000 M⁻¹ s⁻¹ in assay [6]; 1.3e+07 M⁻¹ s⁻¹ in [7]; 1.6e+07 M⁻¹ s⁻¹ in assay [8]; 1.82e+07 M⁻¹ s⁻¹ in assay [9]; 2.67e+07 M⁻¹ s⁻¹ in [10].
